The source of these data is patent publication US12545745B2, “Method for treating a degenerative neurological disorders comprising administering ASM inhibitor” (KYUNGPOOK NATIONAL UNIVERSITY INDUSTRY-ACADEMIC COOPERATION …, priority 2013, dated 2026).

One assay deals with T1, ASM (Mus musculus, UniProt Q04519).
T1 construct: from tissue; host or cells: mouse serum/plasma and brain tissue (APP/PS1, RSD-stressed C57BL/6, FUS R521C mice)
T1 sequence (Q04519 45-627): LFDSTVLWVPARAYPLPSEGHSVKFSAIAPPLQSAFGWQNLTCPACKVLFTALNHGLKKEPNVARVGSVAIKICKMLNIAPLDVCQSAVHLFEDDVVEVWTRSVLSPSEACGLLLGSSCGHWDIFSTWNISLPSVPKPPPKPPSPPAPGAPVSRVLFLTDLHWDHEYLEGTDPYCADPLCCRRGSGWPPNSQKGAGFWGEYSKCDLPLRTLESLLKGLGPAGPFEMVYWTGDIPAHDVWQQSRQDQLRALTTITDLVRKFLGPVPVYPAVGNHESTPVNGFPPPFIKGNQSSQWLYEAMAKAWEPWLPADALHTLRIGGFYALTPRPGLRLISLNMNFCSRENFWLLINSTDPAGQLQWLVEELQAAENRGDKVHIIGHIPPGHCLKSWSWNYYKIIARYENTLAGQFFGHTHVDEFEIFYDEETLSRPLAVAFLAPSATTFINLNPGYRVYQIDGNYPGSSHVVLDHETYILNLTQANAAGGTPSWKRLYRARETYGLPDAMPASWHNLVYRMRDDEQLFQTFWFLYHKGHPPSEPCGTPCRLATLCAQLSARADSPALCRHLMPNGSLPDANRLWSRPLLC
Description: ASM activity in plasma of depression-induced (RSD stress) mice. In kind it is in vivo. Conditions: 50 mg/kg i.p. twice weekly for 4 weeks prior to induction, vs PBS, FIG. 58B. The protocol:
The concentration level of ASM was measured as follows. Specifically, 3μ ? of mouse serum, brain tissue and fibroblast samples were mixed with ASM activity buffer and stored at 37° C. 114 μ ? of ethanol was added to terminate the hydrolysis reaction, followed by centrifugation. 30 μ ? of supernatant was transferred to a glass vial, of which 5 μ ? was applied to the UPLC system. The ASM concentration levels were quantified by comparison with sphingomyelin and Bodipy (aminoacetaldehyde) conjugated with ceramide. The extraction and quantification of the sphingomyelin and ceramide was carried out by extracting and drying the lipids from the sample according to a known conventional method, and resuspending the dried lipid extract to 25 μl of 0.2% Igepal CA-630 (Sigma-Aldrich), and the concentration levels of each lipid were quantitated using the UPLC system. […]
The concentration level of ASM was measured as follows. […] The ASM concentration levels were quantified by comparison with sphingomyelin and Bodipy (aminoacetaldehyde) conjugated with ceramide. The extraction and quantification of the sphingomyelin and ceramide was carried out by extracting and drying the lipids from the sample according to a known conventional method, and resuspending the dried lipid extract to 25 μl of 0.2% Igepal CA-630 (Sigma-Aldrich), and the concentration levels of each lipid were quantitated using the UPLC system.

Assay [1] relates to ALS animal model (FUS R521C). Description: Motor function tests (Tail suspension, Hanging wire, Rotarod) in ALS animal model. Format: in vivo, mouse. Conditions: ALS mice, 50 mg/kg i.p. twice weekly, vs PBS, FIG. 57A-57C. In general terms: Falling from the rotarod earlier than controls is read as motor impairment.

B1: ASM-ab 23A12C3: self-made monoclonal ASM antibody, Koma biotech; heavy chain SEQ ID NO. 29, light chain SEQ ID NO. 30 (antibody)
heavy: MGWSWIFLFLLSGTAGVHSEVQLQQSGPVLVKPGASVKMSCKASGYTFTDYYMNWVKQSHGKSLEWIGVINPYNDGTSYNQKFKGKATLTVDKSSSTAYMELNSLTSEDSAVYYCAREKLYYYGRDYAMDYWGQGTSVTVSSAKTTPPSVYPLAPGSAAQTNSMVTLGCLVKGYFPEPVTVTWNSGSLSSGVHTFPAVLQSDLYTLSSSVTVPSSTWPSQTVTCNVAHPASSTKVDKKIVPRDCGCKPCICTVPEVSSVFIFPPKPKDVLTITLTPKVTCVVVDISKDDPEVQFSWFVDDVEVHTAQTKPREEQINSTFRSVSELPIMHQDWLNGKEFKCRVNSAAFPAPIEKTISKTKGRPKAPQVYTIPPPKEQMAKDKVSLTCMITNFFPEDITVEWQWNGQPAENYKNTQPIMDTDGSYFVYSKLNVQKSNWEAGNTFTCSVLHEGLHNHHTEKSLSHSPGK
light: MSSAQFLGLLLLCFQGTRCDIQMTQTTSSLSASLGDRVTISCRSSQDISNYLNWCQQKPDGTVKLLIYYTSRLHSGVPSRFSGSGSGTDYSLTISNLEQEDIATYFCQQDNTLPYTFGGGTKLEIKRADAAPTVSIFPPSSEQLTSGGASVVCFLNNFYPKDINVKWKIDGSERQNGVLNSWTDQDSKDSTYSMSSTLTLTKDEYERHNSYTCEATHKTSTSPIVKSFNRNEC
modifications: 23A12C3_Heavy chain; 23A12C3_Light chain
notes: self-made monoclonal ASM antibody, Koma biotech; 30
On to B1, for which the “level of ASM activity in the plasma” value in the assay with ASM is “significantly low”. Further, in assay [1], the “impairment in motor function” value is “improved”.
